Laboratory results published in the supplement of paper PMC10126150.
± gives the standard deviation of the averaged measurements.

System: ATP
Experiment: switch fluorescence ratio, 500 uM ATP over buffer (Cy3 cluster intensity, sum of 5 cycles each) (fold (ratio)); higher = stronger signal-on switching upon ATP binding; sequences stand for … in TCGTCGGCAGCGTCAGATGTGTATAAGAGACAGTTTTTTTTTTTTTTTTTTTTTTTTT…TC
Settings: aptamer strand: ATP DNA aptamer (quencher-CACCTGGGGGAGTATTGCGGAGGAAGG + anchor), 100 nM annealed; ATP concentration: 500 uM
How it was run: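 Switching-strand clusters labelled with Cy3 on a modified Illumina MiSeq flow-cell were annealed to 100 nM quencher-labelled ATP aptamer, imaged in selection buffer, and re-imaged after 15 min with 500 uM ATP at 22 °C. This was done over five cycles with NaOH stripping and re-annealing in between. The fluorescence ratio is summed target-cycle over summed buffer-cycle Cy3 intensity per cluster, averaged per switch-domain sequence, excluding clusters outside 100-1000 RFU.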
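Note: ATP exposure 15 min at 22 °C before imaging.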

Sequence | switch fluorescence ratio
TGGGATGTGG | 0.986 ± 0.019
TGGGATGTTC | 0.989 ± 0.031
TGGGATTATG | 0.976 ± 0.0098
TGGGATTTGG | 0.98432 ± 0.00062
TGGGATTTGT | 0.9881 ± 0.0029
TGGGCAACTC | 1.06 ± 0.021
TGGGCAAGTT | 1.04 ± 0.044
TGGGCCAGTT | 0.981 ± 0.035
TGGGCCCATT | 1.02 ± 0.076
TGGGCCGGGG | 0.989 ± 0.019
TGGGCCGGTG | 1.04 ± 0.05
TGGGCCGGTT | 1.05 ± 0.099
TGGGCCTATT | 0.976 ± 0.063
TGGGCCTCCA | 1 ± 0.036
TGGGCGAAGG | 0.9702 ± 0.0071
TGGGCGAGAG | 1.02 ± 0.034
TGGGCGCCGG | 1 ± 0.013
TGGGCGTGTG | 1.02 ± 0.017
TGGGCGTTCT | 1.03 ± 0.081
TGGGCTATAG | 1.03 ± 0.032
TGGGCTATGC | 0.986 ± 0.059
TGGGCTCCGG | 1 ± 0.031
TGGGGAAAAA | 1.07 ± 0.11
TGGGGAAACC | 2.35 ± 2.3
TGGGGAAGCG | 0.988 ± 0.011

Sequence | switch fluorescence ratio
TGGGGAATGT | 1.01 ± 0.042
TGGGGAATTT | 0.987 ± 0.023
TGGGGACACT | 1.02 ± 0.016
TGGGGACGCT | 0.9977 ± 0.004
TGGGGACGTG | 1.013 ± 0.0047
TGGGGACTTG | 0.9782 ± 0.0015
TGGGGAGGAG | 0.995 ± 0.017
TGGGGAGGCA | 0.97516 ± 0.00042
TGGGGAGGGA | 0.983 ± 0.033
TGGGGAGGGG | 0.991 ± 0.047
TGGGGATCGA | 1.04 ± 0.011
TGGGGATTAG | 1.01 ± 0.033
TGGGGCACCG | 0.994 ± 0.029
TGGGGCAGCA | 1.01 ± 0.042
TGGGGCAGCG | 1.007 ± 0.0039
TGGGGCCGAT | 1.02 ± 0.021
TGGGGCGCTA | 1.07 ± 0.11
TGGGGCGTTT | 1.01 ± 0.022
TGGGGCTCTA | 1.03 ± 0.033
TGGGGCTTAT | 0.987 ± 0.026
TGGGGCTTTT | 1.02 ± 0.053
TGGGGGAATC | 1.02 ± 0.046
TGGGGGAATG | 0.992 ± 0.0027
TGGGGGACAT | 1.01 ± 0.028
TGGGGGATGG | 0.996 ± 0.057

Sequence | switch fluorescence ratio
TGGGGGCAGT | 1.12 ± 0.066
TGGGGGCTGG | 0.991 ± 0.013
TGGGGGG | 1.016 ± 0.0078
TGGGGGGAAC | 1.02 ± 0.019
TGGGGGGAAG | 0.994 ± 0.018
TGGGGGGCGA | 0.997 ± 0.011
TGGGGGGCGC | 0.989 ± 0.025
TGGGGGGCGT | 1.01 ± 0.043
TGGGGGGGAG | 0.996 ± 0.029
TGGGGGGGCC | 0.968 ± 0.0076
TGGGGGGTGG | 1 ± 0.041
TGGGGGGTGT | 1.02 ± 0.069
TGGGGGTAAA | 0.9997 ± 0.0091
TGGGGGTCCT | 1.01 ± 0.031
TGGGGTACAC | 0.993 ± 0.024
TGGGGTACGA | 1.01 ± 0.026
TGGGGTACGG | 1.004 ± 0.0064
TGGGGTACGT | 1.02 ± 0.013
TGGGGTACTT | 0.973 ± 0.027
TGGGGTAGGT | 0.999 ± 0.011
TGGGGTCAGG | 1.016 ± 0.0086
TGGGGTCTCT | 0.985 ± 0.042
TGGGGTGATC | 1 ± 0.029
TGGGGTGCGA | 1.01 ± 0.042
TGGGGTGGCA | 1.01 ± 0.045

Sequence | switch fluorescence ratio
TGGGGTGGCT | 0.985 ± 0.015
TGGGGTTCAC | 0.998 ± 0.018
TGGGGTTGAA | 0.958 ± 0.022
TGGGGTTTCG | 0.973 ± 0.038
TGGGGTTTTG | 0.979 ± 0.015
TGGGTAAAGT | 0.971 ± 0.019
TGGGTAACTT | 1.1 ± 0.18
TGGGTAAGTA | 0.993 ± 0.012
TGGGTAAGTG | 0.975 ± 0.022
TGGGTACGCT | 1.01 ± 0.022
TGGGTAGAAC | 1.12 ± 0.13
TGGGTATATA | 1.03 ± 0.016
TGGGTATGAA | 0.977 ± 0.019
TGGGTATTCC | 1.021 ± 0.0085
TGGGTCAGGT | 0.9994 ± 0.0084
TGGGTCGTGC | 0.99 ± 0.011
TGGGTCTACT | 0.9761 ± 0.0084
TGGGTCTAGT | 0.9975 ± 0.0042
TGGGTGACGA | 1.01 ± 0.024
TGGGTGCAAA | 1.01 ± 0.033
TGGGTGTAT | 1.01 ± 0.023
TGGGTGTCAC | 0.9868 ± 0.005
TGGGTGTGTT | 0.995 ± 0.028
TGGGTTAGCG | 0.995 ± 0.041
TGGGTTAGGT | 0.977 ± 0.022

Sequence | switch fluorescence ratio
TGGGTTAGTA | 0.984 ± 0.015
TGGGTTATAT | 0.979 ± 0.011
TGGGTTATGC | 0.984 ± 0.018
TGGGTTATGT | 0.992 ± 0.019
TGGGTTCGGT | 0.995 ± 0.0032
TGGGTTCTGA | 0.98 ± 0.011
TGGGTTGGAT | 0.99 ± 0.013
TGGGTTTATT | 0.984 ± 0.014
TGGGTTTCAG | 0.996 ± 0.05
TGGGTTTTCA | 0.984 ± 0.016
TGGGTTTTCT | 1.08 ± 0.28
TGGGTTTTTA | 0.9442 ± 0.0014
TGGGTTTTTG | 1.01 ± 0.039
TGGTAAATCT | 1 ± 0.036
TGGTAATATA | 1.02 ± 0.024
TGGTAATATC | 1.012 ± 0.0024
TGGTAATCAA | 1.01 ± 0.039
TGGTACGGGG | 1.02 ± 0.033
TGGTACGGTC | 0.927 ± 0.041
TGGTAGAGAT | 1.01 ± 0.051
TGGTAGGGTG | 1.01 ± 0.034
TGGTAGTAGG | 0.995 ± 0.017
TGGTAGTCGT | 0.994 ± 0.043
TGGTAGTGAC | 1.03 ± 0.064
TGGTAGTTTT | 0.9899 ± 0.0078

Sequence | switch fluorescence ratio
TGGTATATT | 0.986 ± 0.027
TGGTATTGTG | 0.947 ± 0.021
TGGTATTTGG | 0.949 ± 0.046
TGGTCAACTA | 1 ± 0.02
TGGTCAGCTA | 1.02 ± 0.025
TGGTCCATGG | 1.008 ± 0.007
TGGTCCATTT | 1.014 ± 0.0091
TGGTCCCGGA | 1 ± 0.017
TGGTCGGGGT | 1.01 ± 0.013
TGGTCGTCTT | 1.05 ± 0.035
TGGTCTATTT | 0.965 ± 0.019
TGGTCTCTAA | 0.98 ± 0.01
TGGTCTTCCA | 1.04 ± 0.013
TGGTGAATTT | 1.016 ± 0.0067
TGGTGAGGCT | 0.9694 ± 0.0037
TGGTGGCGGT | 1.01 ± 0.075
TGGTGGGAGG | 1 ± 0.015
TGGTGGGGAG | 1.01 ± 0.045
TGGTGGGGGG | 0.997 ± 0.037
TGGTGGGGTG | 0.986 ± 0.012
TGGTGGTGGC | 0.981 ± 0.0072
TGGTGTCTAT | 1.007 ± 0.0087
TGGTGTGACA | 0.995 ± 0.065
TGGTGTTGGG | 0.983 ± 0.015
TGGTGTTTTG | 0.999 ± 0.031

Sequence | switch fluorescence ratio
TGGTTAAATC | 1.03 ± 0.019
TGGTTACGGG | 0.993 ± 0.012
TGGTTATGTA | 1 ± 0.014
TGGTTCAAGT | 0.984 ± 0.011
TGGTTGAATA | 0.998 ± 0.05
TGGTTGCAGG | 1.05 ± 0.042
TGGTTGGCGT | 1.04 ± 0.066
TGGTTGGTGT | 1.06 ± 0.015
TGGTTGTGGG | 0.996 ± 0.028
TGGTTTAGTG | 0.976 ± 0.031
TGGTTTCCTT | 0.955 ± 0.025
TGGTTTCGTG | 1.01 ± 0.023
TGGTTTGGAA | 0.998 ± 0.05
TGGTTTGGGA | 1 ± 0.029
TGGTTTTTAA | 0.977 ± 0.052
TGGTTTTTGA | 0.988 ± 0.038
TGTAAAAAAA | 1.04 ± 0.044
TGTAAAACTA | 1.02 ± 0.028
TGTAAAGGGT | 0.9778 ± 0.0084
TGTAAATTTT | 1.03 ± 0.041
TGTAACTTGC | 1.077 ± 0.0036
TGTAAGAAAA | 0.985 ± 0.052
TGTAAGAGCG | 0.9934 ± 0.0022
TGTAAGCTAG | 1.017 ± 0.0066
TGTAAGGGAA | 1.01 ± 0.018

Sequence | switch fluorescence ratio
TGTAAGGTCG | 1.013 ± 0.01
TGTAAGGTGA | 1.03 ± 0.022
TGTAAGTATT | 1.02 ± 0.018
TGTAATTACA | 1.003 ± 0.0061
TGTAATTTCG | 1.03 ± 0.04
TGTAATTTTC | 1.05 ± 0.12
TGTACAAAAT | 0.986 ± 0.047
TGTACCGTGC | 1.07 ± 0.068
TGTACGAGAA | 1.003 ± 0.0035
TGTACGGGGT | 1.01 ± 0.021
TGTACTAGGG | 1.001 ± 0.0069
TGTAGAAAGG | 1.03 ± 0.046
TGTAGACTGA | 1.01 ± 0.011
TGTAGAGCCA | 1.03 ± 0.035
TGTAGCAGGG | 1.12 ± 0.043
TGTAGGCGGC | 1.02 ± 0.015
TGTAGTGTTG | 1 ± 0.043
TGTAGTTTGG | 1.02 ± 0.032
TGTATATTTT | 0.98 ± 0.021
TGTATGAACT | 0.98027 ± 3.7e-05
TGTATTAAGG | 1.01 ± 0.036
TGTATTATGG | 0.968 ± 0.0097
TGTATTGAAC | 1.03 ± 0.0024
TGTATTGTGG | 0.987 ± 0.021
TGTATTTGGC | 0.914 ± 0.044
